What all share (experiment): BLI
Common to all, as to conditions: both partners purified

Assay [1] deals with recombinant SARS-CoV-2 RBD-His protein (Sino Biological, 40592-V08B) (SARS-CoV-2, UniProt P0DTC2).
The target in assay [2] is SARS-CoV-2 RBD (residues 319-541), wild type (SARS-CoV-2, wild type, UniProt P0DTC2).
In assay [3] the target is T1, SARS-CoV-2 Alpha RBD (SARS-CoV-2 Alpha (B.1.1.7), N501Y (stands in the printed letters)).
For assay [4], the target named is T1, SARS-CoV-2 Alpha RBD. The source holds these as a separate data set.
Assay [5] concerns the target S-R/PP SARS-CoV-2 spike (2P-stabilized spike with furin site changed to a single R) (SARS-CoV-2, wild type (Wuhan-Hu-1 spike), UniProt P0DTC2, stabilised).
For assay [6], the target named is S-R SARS-CoV-2 spike (unstabilized native spike with furin site changed to a single R) (SARS-CoV-2, wild type (Wuhan-Hu-1 spike), UniProt P0DTC2, stabilised).
Assay [7] deals with S-R/x2 SARS-CoV-2 spike (x2 disulfide-stabilized RBD 'down' spike) (SARS-CoV-2, wild type (Wuhan-Hu-1 spike), UniProt P0DTC2, stabilised).
The target of assay [8] is S-R/x3 SARS-CoV-2 spike (x3 disulfide-stabilized RBD 'down' spike) (SARS-CoV-2, wild type (Wuhan-Hu-1 spike), UniProt P0DTC2, stabilised).
Assay [9] concerns the target SARS-CoV-2 Alpha (B.1.1.7) variant RBD (SARS-CoV-2 Alpha (B.1.1.7), N501Y).
For assay [10], the target named is T1, SARS-CoV-2 Alpha RBD. This is another data set of the same source.

The text below walks through data of publication PMC9519457 (Nature Microbiology, 2022).

Where a chain is given by its changes, count along the chain named.

B1: C963 (R1-32-like mAb, ref. 27) (antibody, V domains shown)
VH: QVQLVQSGAEVKKPGSSVRVSCKASGGTFSSFTITWVRQAPGQGLEWMGRIIPNLNIPNYAQRFQGRITITAEKSTSTAYLELSSLRSEDTAVYYCARGVGYSGSGSNWYFDLWGRGTLVTVSS
VL: QSVLTQPPSVSGAPGQRVTISCTGSSSNIGAGYDVHWYQQLPGTAPKLLISGHINRPSGVPDRFSGSTSGTSASLAITGLQAEDEADYYCQSYDSSLSDSVFGGGTKLTV
Turning to B1, the binding result in assay [1] and in [2] was “binds” in each case.

B2: C941 (R1-32-like mAb, ref. 27) (antibody, V domains shown)
VH: QVQLVQSGAEVKKPGSSVKVSCKASGGTSRSYPISWVRQAPGQGLEWMGRIIPIVGTANYAQRFQGRVTITADESTGTAYMELSSLRSEDTAVYYCARNRGYSDYGSVYYFDYWGQGTLVTVSS
VL: B1 VL with T44A, S51Y, G52R, H53N, T68K, E83D, D99G
In the case of B2, the binding result in assay [1] and in assay [2] was “binds” in each case.

B3: C978 (R1-32-like mAb, ref. 27) (antibody, V domains shown)
VH: QVQLVQSGAEVKKPGSSVKVSCKASGATFSNYIISWVRQAPGQGLEWMGRTIPLLDIANYAQKFQGRVTITADKSTRIVYMHLGSLTSEDTAVYYCATGKGYSSSSAAYYFDHWGQGTLVTVSS
VL: QSVLTQPPSVSGAPGQRVTISCTGTNSNIGAGYDIHWYQQLPGTAPKLLIYGSNNRPSGVPDRFSGSKSGTSASLAITGLQAEDEADYYCQSYDSSLSGSEVFGGGTKLTVL
Regarding B3, the binding result in [1] and in [2] was “binds” in each case.

B4: R1-32 (antibody, V domains shown)
VH: EVQLVESGAEVKKPGSSVKVSCKASGGTFSSYAISWVRQAPGQGLEWMGGIIPILGIANYAQKFQGRVTITADKSTSTAYMELSSLRSEDTAVYYCARENGYSGYGAAANFDLWGRGTLVTVSS
VL: QSVLTQPPSVSGAPGQRVTISCTGSSSNIGAGYDVHWYQQLPGTAPKLLIYGNSNRPSGVPDRFSGSKSGTSASLAITGLQAEDEADYYCQSYDSSLSGSVFGGGTKLTVL
notes: human IgG1
In the assay with SARS-CoV-2 Alpha RBD [3], B4 gave an off-rate (koff) of 0.000354 s⁻¹ and a kon of 499000 M⁻¹ s⁻¹. In the assay with SARS-CoV-2 Alpha RBD [4], this molecule came in with a Kd of 4.74 nM, a koff of 0.00195 s⁻¹ and a kon of 411000 M⁻¹ s⁻¹.

B5: R1-32 (human IgG1 monoclonal antibody) (antibody, V domains shown)
VH: B4 VH
VL: B4 VL
In the case of B5, the binding result in assay [5], in assay [6], in assay [7] and in assay [8] was “binds” each time. The Kd in assay [9] stood at 0.71 nM.

B6: C092 (R1-32-like mAb, ref. 28) (antibody, V domains shown)
VH: QVQLVQSGAEVKKPGSSVKVSCKASGGSFTNHFISWVRQAPGQGLEWMGRIIPILGTANYAQNFQGRVMMTADKSTSTAYMELSSLRSEDTAVYYCARDSGYSGYGSTYYMDVWGKGTTVTVSS
VL: B4 VL with S26N, T44A, S54N, G70D, A82V, G99D, G104S, L108V
Consider B6, for which the binding result in [1] and in assay [2] was “binds” each time.

B7: C091 (R1-32-like mAb, ref. 28) (antibody, V domains shown)
VH: B6 VH with S28T, T30S, N31S, H32Y, F33T, T57I, N63K, M69T, M70I
VL: B4 VL with G104T, G105V, L108V
As to B7, the binding result in assay [1] and in assay [2] was “binds” throughout.

B8: C807 (R1-32-like mAb, ref. 29) (antibody, V domains shown)
VH: QVQLVQSGAEAKKPGSSVKVSCKASGGTFKSYIINWVRQAPGQGLEWMGEIIPIFGTANYAQKFQGRVTSTADESTSTAYMELSSLKSEDTAVYYCARGRGYSGYGASYYFDYWGQGTLVTVSS
VL: B4 VL with S26N, G52A, S96G
Consider B8, for which the binding result in assay [1] and in assay [2] was “binds” in each case.

B9: C832 (R1-32-like mAb, ref. 29) (antibody, V domains shown)
VH: QVQLVQSGAEVKKPGSSVKVSCKASGGTFSSYSISWVRQAPGQGLEWMGRIIPILGIASYAQKFQGRVTITADKSTSTVYMELTGLRSDDTAVYYCARDRGYSDYGSHYYMDVWGKGTTVTVSS
VL: B4 VL with G52I, G99D
Consider B9, for which the binding result in assay [1] and in assay [2] was “binds” throughout.

B10: FC08 (antibody, V domains shown)
VH: QLLQQSGAEVKKPGSSVKVSCKASGGTFSSYAISWVRQAPGQGLEWMGGIIPIIGIANYAQKFQGRVTITADKSTSTAYMELSSLRSEDTAVYYCARERGYSGYGAAYYFDYWGQGTLVTVSS
VL: SVLTQPPSVSGAPGQRVTISCTGSSSNIGAGYDVHWYQQLPGTAPKLLIYGNSNRPSGVPDRFSGSKSGTSASLAITGLQAEDEADYYCQSYDSSLSGSVFGGGTKLTVL
In the assay with SARS-CoV-2 Alpha RBD [10], B10 yielded a Kd of 0.15 nM, a koff of 0.00025 s⁻¹ and a kon of 1.69e+06 M⁻¹ s⁻¹.

B11: FC08 (R1-32 related VH1-69 antibody, ref. 10) (antibody, V domains shown)
VH: B10 VH
VL: B10 VL
Turning to B11, the binding result in assay [6], in assay [8] and in [2] was “binds” throughout.
